Results taken from publication PMC5344419, “The structure of FKBP38 in complex with the MEEVD tetratricopeptide binding-motif of Hsp90” (PLoS ONE, 2017).
Entries after “also recorded” stand apart in the source; their conditions may differ.

B1: FKBP8: immunophilin with N-terminal glutamate rich region, PPIase domain and tetratricopeptide domain; construct not specified at the place (protein)
chain: MASCAEPSEPSAPLPAGVPPLEDFEVLDGVEDAEGEEEEEEEEEEEDDLSELPPLEDMGQPPAEEAEQPGALAREFLAAMEPEPAPAPAPEEWLDILGNGLLRKKTLVPGPPGSSRPVKGQVVTVHLQTSLENGTRVQEEPELVFTLGDCDVIQALDLSVPLMDVGETAMVTADSKYCYGPQGRSPYIPPHAALCLEVTLKTAVDGPDLEMLTGQERVALANRKRECGNAHYQRADFVLAANSYDLAIKAITSSAKVDMTFEEEAQLLQLKVKCLNNLAASQLKLDHYRAALRSCSLVLEHQPDNIKALFRKGKVLAQQGEYSEAIPILRAALKLEPSNKTIHAELSKLVKKHAAQRSTETALYRKMLGNPSRLPAKCPG
modifications: left off: His6, C-terminal, kept
notes: immunophilin with N-terminal glutamate rich region, PPIase domain and tetratricopeptide domain; construct not specified at the place
B2: FKBP^92-380: fragment containing both the immunophilin and TPR domain (protein)
chain: EWLDILGNGLLRKKTLVPGPPGSSRPVKGQVVTVHLQTSLENGTRVQEEPELVFTLGDCDVIQALDLSVPLMDVGETAMVTADSKYCYGPQGRSPYIPPHAALCLEVTLKTAVDGPDLEMLTGQERVALANRKRECGNAHYQRADFVLAANSYDLAIKAITSSAKVDMTFEEEAQLLQLKVKCLNNLAASQLKLDHYRAALRSCSLVLEHQPDNIKALFRKGKVLAQQGEYSEAIPILRAALKLEPSNKTIHAELSKLVKKHAAQRSTETALYRKMLGNPSRLPAKCPG
modifications: left off: His6 (from the vector pDMXV4), C-terminal, kept
notes: fragment containing both the immunophilin and TPR domain

Test system: yeast Hsp90
Assay: ATPase activity of yeast Hsp90
Assay type: biochemical
Conditions: ATPase assay, 5-molar excess of FKBP^92-380 over Hsp90 (Fig 7)

Molecule | effect on ATPase activity of Hsp90
B1 | did not substantially influence; also recorded: did not show any substantial effect
B2 | did not substantially alter
